Results on one molecule are retold here after US20070116750A1, “Compositions for disrupting and inhibiting reconstitution of wound biofilm” (priority 2005, published 2007).

“Also recorded” adds a separate entry of the source.

In assay [1] the test system is oral ulcers. The conditions noted are these: hamsters; cited from earlier work.
In assay [2] the test system is chronic wound biofilm. Nature of the assay: Topical treatment of patients' chronic/non-healing wounds in the clinic (case reports and clinical experience). Type of assay: in vivo, human. To be noted: for wound healing outcome: topical application with debridement and other wound care. From the text: The composition is preferably applied following wound debridement. Although biofilm bacteria cannot be completely eradicated from the wound area by debridement, decreasing biofilm mass and providing increased exposure of the debrided tissue and remaining biofilm bacteria to the inventive compositions increases wound healing. […] It is therefore of benefit to debride the slough from the wound as completely as possible. Debridement can be performed by surgical, mechanical, autolytic, enzymatic, or a combination of means known to those of skill in the art of wound care. Furthermore, standard gauze dressings to pack or cover the wound will preferably be avoided, since those dressings may enhance biofilm formation or reconstitution in the wound. If used, such dressings may, however, be coated or impregnated with a composition of the present invention to decrease the biofilm-enhancing properties of a gauze dressing.
Topical wound care compositions may comprise about 2 to about 200 mg of MDPP or MDPP-A per cubic centimeter of total composition. In one embodiment, a composition comprises about 20 to about 200 mg of MDPP or MDPP-A, provided as Bioferrino®1000 or Bioferrin®2000, per cubic centimeter of total composition and about 1 to about 50, or in some embodiments about 5 to about 20, percent (w/v) xylitol. In one embodiment, this composition may be admixed into a methylcellulose/gelatin gel. This composition can be applied, in an amount of about ½ to about 5 cc of protein isolate/xylitol composition to each one square centimeter of wound area, to a freshly debrided chronic wound after the slough has been removed.
Xylitol (one-, two-, three-, four-, and five-xypentane hydro from Spectrum Chemical) comprised the second active ingredient, and was present at a concentration of 5% by weight of the mixture. The base gel of the composition comprised methylcellulose (0.023 gm/cc), gelatin (0.013 gm/cc) and sterile water.

For assay [3], the system named is Streptococcus mutans. To be noted: lactoferrin and iron depletion; cited from earlier work.
The test system of assay [4] is P. aeruginosa. To be noted: in vitro; cited from earlier work.
Setting [5] is: individual patient case reports.

B1: lactoferrin: iron-binding glycoprotein, 75,000-80,000 Daltons; in Examples 2-11 applied as Bioferrin with xylitol in gel (protein, UniProt P24627 20-708, looked up)
Lactotransferrin: APRKNVRWCTISQPEWFKCRRWQWRMKKLGAPSITCVRRAFALECIRAIAEKKADAVTLDGGMVFEAGRDPYKLRPVAAEIYGTKESPQTHYYAVAVVKKGSNFQLDQLQGRKSCHTGLGRSAGWIIPMGILRPYLSWTESLEPLQGAVAKFFSASCVPCIDRQAYPNLCQLCKGEGENQCACSSREPYFGYSGAFKCLQDGAGDVAFVKETTVFENLPEKADRDQYELLCLNNSRAPVDAFKECHLAQVPSHAVVARSVDGKEDLIWKLLSKAQEKFGKNKSRSFQLFGSPPGQRDLLFKDSALGFLRIPSKVDSALYLGSRYLTTLKNLRETAEEVKARYTRVVWCAVGPEEQKKCQQWSQQSGQNVTCATASTTDDCIVLVLKGEADALNLDGGYIYTAGKCGLVPVLAENRKSSKHSSLDCVLRPTEGYLAVAVVKKANEGLTWNSLKDKKSCHTAVDRTAGWNIPMGLIVNQTGSCAFDEFFSQSCAPGADPKSRLCALCAGDDQGLDKCVPNSKEKYYGYTGAFRCLAEDVGDVAFVKNDTVWENTNGESTADWAKNLNREDFRLLCLDGTRKPVTEAQSCHLAVAPNHAVVSRSDRAAHVKQVLLHQQALFGKNGKNCPDKFCLFKSETKNLLFNDNTECLAKLGGRPTYEEYLGTEYVTAIANLKKCSTSPLLEACAFLTR
As to B1, the “efficacy for treating oral ulcers” value in assay [1] is “not effective”. Also, the “inhibition of biofilm reconstitution / response of wounds, clinical experience” value in assay [2] (chronic wounds after debridement, comparative statements) is “inhibits reconstitution of an existing biofilm in a chronic wound”. For the same molecule, the “slough (biofilm) in the wound bed during therapy” value in assay [2] (setting [5]) is on record as “no evidence of slough”. Moreover, the wound healing outcome is reported as “the wound healed; also recorded: almost completely healed” in assay [2] (setting [5]) and “complete healing of their wound” in assay [2] (individual patient case reports, listed as Lactoferrin). Further, the “time to complete healing / closure of wound” value in assay [2] (patients with venous leg wounds) was 5 weeks. Moreover, the figures for the “effect on biofilm formation” value in assay [3] and in assay [4] were “stimulate biofilm formation” and “block biofilm formation”, respectively.
